System: Erh1-Mmi1 interaction
Experiment: Co-immunoprecipitation of Erh1-GFP and FLAG-Mmi1 from yeast cells
Assay type: cell-based, S. pombe
Conditions: FLAG-Mmi1 WT replaced with mutant; Erh1-GFP; YEA medium, 32 °C
Experimental: Cells were grown to mid-log phase in rich YEA medium at 32 °C, harvested, and flash-frozen in liquid nitrogen prior to extract preparations. Extracts prepared from yeast cells expressing epitope tagged proteins under the control of native gene promoters were used for immunoprecipitations and Western blot analyses as described. Total protein extracts for western blotting analyses were prepared by trichloroacetic acid (TCA) precipitation. Briefly, cells were lysed using glass beads in 20% TCA buffer. Next, lysates were diluted using 5% TCA buffer and total protein pellets were concentrated by centrifugation at 21,000×g for 5 min. Precipitated protein was dissolved in sodium dodecyl sulfate (SDS) sample buffer prior to resolution in a polyacrylamide gel. For immunoprecipitation experiments, cells were lysed using glass beads in 2X HC lysis buffer (300 mM HEPES buffer pH 7.6, 100 mM KCl, 2 mM EDTA, 0.2% NP-40, and 0.2 mM DTT) containing protease inhibitor cocktail (11697498001, Roche) and 2 mM PMSF. Lysate cleared of cellular debris was incubated with antibody-conjugated beads for immunoprecipitation. […]

B1: mutant Mmi^W112A protein: full-length Mmi1 carrying W112A, expressed in S. pombe (protein)
chain: MSNTNFSTSRSSKSIPELPNLEALRSLWPPPSLNESGDTRSVWTTHTGEPVASSVLSTSGSNNFSSPLKRPAPESHDAPIGRRLMVDDPRLIKHGKYDFSRHCTDYGHSYEAPYFRSLRRESMLYHTSGSYPESQPPYSSYSTDAPHYYHAGSESSAYYDSRSRLHGIQPPPKRRTLSPPPRRLADPVVVGSSRYVEEEVYRRPPYTLASEVPSSASAYQAGYSSYPVRSSPQLSHEDTRHGIASSGSTRYPFVPANTRASHSPSLLEPYAHSLPSSVAPVGAYPEKSSYLLSNSSNDSASRKEKPKARASTPPPLNFSRASEHRNEKGERISMINPRVVLDENGISHRSRYFIMLCDNETAIAHAKKTSIWAVKKDSSKRISDAYKKASVYFIFVAQQTYNALGYAQVVSDLNSTELPFWSDSSHAGGVRIKWIKTCNLFSAEISEIVSHMDHGSEARDGMEMMYDEGSRLCTLINYAIMKRIGRDR
modifications: left off: FLAG, end not stated, kept
notes: full-length Mmi1 carrying W112A, expressed in S. pombe
Erh1-Mmi1 interaction (co-immunoprecipitation): drastically diminished the Erh1-Mmi1 interaction
